Data as given in US11352401.

Target: HLA-A*01 (human)
Test: UV peptide-exchange ELISA; ++++ = yield >75%
Details: remark: other sources report otherwise

peptide exchange yield: > 75%
Binder: NTDNNLAVY [… (SEQ ID NO: 164)]
